Experimental data published in patent US20250250330A1 (REVOPSIS THERAPEUTICS, published 2025).
Where “and” joins values, the source holds several entries; their conditions need not be identical. Identical values can stand only once.

Key:
[1] = target: T1, His-tagged recombinant human ANG-2 (AcroBiosystems, Cat #AN2-H52H4) (human, UniProt O15123 275-496); assay: competition ELISA; His-tagged rhANG-2 in solution, competitor coated rhTie-2-Fc
T1 construct: also called rhANG-2; rhANG-2-His; not shown: His tag
T1 sequence (looked up): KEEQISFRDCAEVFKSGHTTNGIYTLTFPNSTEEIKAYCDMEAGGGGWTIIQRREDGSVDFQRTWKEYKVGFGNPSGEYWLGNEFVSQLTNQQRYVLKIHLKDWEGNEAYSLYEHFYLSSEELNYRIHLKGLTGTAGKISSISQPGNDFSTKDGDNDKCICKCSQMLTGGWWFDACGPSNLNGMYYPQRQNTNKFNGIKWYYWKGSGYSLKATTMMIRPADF

[2] = target: T2, Recombinant human VEGF165 (Peprotech, Cat #100-20) (human, UniProt P15692-4 27-191); assay: ELISA; rhVEGF165 coated, anti-human IgG Fc-HRP detection
T2 construct: Bought protein; also called rhVEGF165; rh VEGF165
Excerpt: The binding was detected by HRP-conjugated donkey anti-human IgG Fcγ antibody (Jackson ImmunoResearch Laboratories, Cat #709-035-098).

- IC50 [1]: 0.787 nM
- EC50 [2]: 0.0401 nM and 0.0556 nM and 0.0417 nM
B1: RO-101 VEGF/ANG-2 bispecific surrobody (bispecific antibody, human IgG1, L234A L235A)
heavy 1: not shown
heavy 2: EVQLVESGGGLVKPGGSLRLSCAASGFTFSSYGMHWVRQAPGKGLEWVAGISADSGDKNYADSVKGRFTISRDNAKNSLYLQMNSLRAEDTAVYYCAKEFISWIYTFDYLDYWGQGTLVTVSSASTKGPSVFPLAPSSKSTSGGTAALGCLVKDYFPEPVTVSWNSGALTSGVHTFPAVLQSSGLYSLSSVVTVPSSSLGTQTYICNVNHKPSNTKVDKKVEPKSCDKTHTCPPCPAPEAAGGPSVFLFPPKPKDTLMISRTPEVTCVVVDVSHEDPEVKFNWYVDGVEVHNAKTKPREEQYNSTYRVVSVLTVLHQDWLNGKEYKCKVSNKALPAPIEKTISKAKGQPREPQVCTLPPSRDELTKNQVSLSCAVKGFYPSDIAVEWESNGQPENNYKTTPPVLDSDGSFFLVSKLTVDKSRWQQGNVFSCSVMHEALHNHYTQKSLSLSPG
light: QPVLHQPPAMSSALGTTIRLTCTLRNDHDIGVYSVYWYQQRPGHPPRFLLRYFSQSDKSQGPQVPPRFSGSKDVARNRGYLSISELQPEDEAMYYCAMGARSSVTHVFGSGTQLTVLSQPKATPSVTLFPPSSEELQANKATLVCLMNDFYPGILTVTWKADGTPITQGVEMTTPSKQSNNKYAASSYLSLTPEQWRSRRSYSCQVMHEGSTVEKTVAPAECS
notes: Format SgG1; also called Sample 1
